Measurements: patent publication US20220380471A1 (US Dept. of Health and Human Services, published 2022)

Legend:
[1] = biological target: T1, hB7H3-His (human, UniProt Q5ZPR3 29-461, limits assumed); test: ELISA; row B7H3-his; well 3 of 3
T1 construct: not shown: His tag
T1 sequence (looked up): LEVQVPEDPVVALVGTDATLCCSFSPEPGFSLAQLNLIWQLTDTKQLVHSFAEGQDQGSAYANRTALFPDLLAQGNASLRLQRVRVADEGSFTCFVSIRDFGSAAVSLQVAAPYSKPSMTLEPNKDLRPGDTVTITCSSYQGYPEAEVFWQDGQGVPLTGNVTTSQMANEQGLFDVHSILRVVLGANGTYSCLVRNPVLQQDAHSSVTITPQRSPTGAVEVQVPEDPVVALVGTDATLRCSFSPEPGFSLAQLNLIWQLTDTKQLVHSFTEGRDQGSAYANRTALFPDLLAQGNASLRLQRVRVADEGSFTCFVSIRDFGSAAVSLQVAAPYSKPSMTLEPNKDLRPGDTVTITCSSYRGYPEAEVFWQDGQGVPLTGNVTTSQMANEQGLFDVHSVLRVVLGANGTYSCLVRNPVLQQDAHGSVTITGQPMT
In short: (§1)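 Camel VHH nanobodies were selected by phage panning against recombinant B7H3-Fc and then purified. An ELISA measured their binding to immobilised recombinant proteins, both B7H3 fusion proteins and proteins unrelated to B7H3. The values are the ELISA signal.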

[2] = biological target: PD-L1; test: ELISA; row PDL1-Fc; well 1 of 3
In short: as §1

[3] = biological target: T2, recombinant human B7H3-Fc protein (human, UniProt Q5ZPR3 29-466, limits assumed); test: phage ELISA
T2 construct: 154 kDa non-reduced, 77 kDa reduced; also called hB7H3-Fc; not shown: Fc part
T2 sequence (looked up): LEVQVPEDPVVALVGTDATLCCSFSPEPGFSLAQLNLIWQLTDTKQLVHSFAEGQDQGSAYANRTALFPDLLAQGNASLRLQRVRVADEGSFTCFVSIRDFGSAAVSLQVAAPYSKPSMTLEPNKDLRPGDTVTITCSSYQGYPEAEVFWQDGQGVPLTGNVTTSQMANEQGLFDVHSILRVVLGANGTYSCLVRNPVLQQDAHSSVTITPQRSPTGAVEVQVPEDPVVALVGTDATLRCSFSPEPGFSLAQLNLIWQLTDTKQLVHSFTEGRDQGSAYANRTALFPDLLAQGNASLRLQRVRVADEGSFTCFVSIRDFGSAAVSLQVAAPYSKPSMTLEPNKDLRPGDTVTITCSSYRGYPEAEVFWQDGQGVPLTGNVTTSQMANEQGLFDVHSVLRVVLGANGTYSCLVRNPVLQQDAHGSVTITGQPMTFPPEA
In short: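 Libraries from eight individual camels supplied the camel VHH phage, which were panned on recombinant B7H3-Fc protein for 3 rounds. Phage ELISA then measured how the selected phage bound to immobilised antigens, namely human and other-species B7H3 or control proteins, with the ELISA signal as the recorded value.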

[4] = biological target: T3, B7H3 (CD276) on MC38-CD276+ cells; test: flow cytometry on MC38-CD276+ cells, VHH at 0.5 ug/ml
T3 construct: whole, on cells; MC38-CD276KO cells served as the negative control; also called MC38-B7H3+
T3 sequence (Q5ZPR3 1-534, species assumed, looked up): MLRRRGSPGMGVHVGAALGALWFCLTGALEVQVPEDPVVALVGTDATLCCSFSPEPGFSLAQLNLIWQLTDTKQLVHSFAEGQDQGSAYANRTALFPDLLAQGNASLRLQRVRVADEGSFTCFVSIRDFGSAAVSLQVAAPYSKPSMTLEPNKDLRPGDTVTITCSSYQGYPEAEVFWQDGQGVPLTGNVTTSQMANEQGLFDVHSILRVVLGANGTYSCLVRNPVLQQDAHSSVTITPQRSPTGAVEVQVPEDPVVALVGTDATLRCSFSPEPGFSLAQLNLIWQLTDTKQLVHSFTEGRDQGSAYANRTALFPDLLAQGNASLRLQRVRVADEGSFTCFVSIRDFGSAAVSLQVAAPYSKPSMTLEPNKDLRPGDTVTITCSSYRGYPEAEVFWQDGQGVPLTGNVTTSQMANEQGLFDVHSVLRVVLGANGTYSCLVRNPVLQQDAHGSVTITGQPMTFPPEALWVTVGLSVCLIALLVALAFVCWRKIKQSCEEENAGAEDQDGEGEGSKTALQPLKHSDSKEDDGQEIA

[5] = biological target: T4, B7H3 peptide 10 (human); test: peptide ELISA (OD450), 18-mer peptides of human B7H3
T4 peptide: QRVRVADEGSFTCFVSIR
From the text: (§2) FIGS. 21A-21C: G8 cross-reacts with mouse B7H3 and kills mouse cancer cells. (FIG. 21A) Binding activity of anti-B7H3 nanobodies to mouse antigen detected by flow cytometry. […] (FIG. 21C). […] A total of 48 peptides from the human B7H3 protein were designed and synthesized. Each peptide consisted of 18 amino acids and overlapped with adjacent peptides by 9 amino acids. ELISA technology was used to test binding ability of antibody to each peptide. Number indicates the OD₄₅₀ value. […] The peptide sequences are shown below the table. C4 and B12 may have a conformational epitope that couldn't be predicted by a linearized peptide library.
(§3) A total of 48 peptides from the human B7H3 protein were designed and synthesized. Each peptide consisted of 18 amino acids and overlapped with adjacent peptides by 9 amino acids. ELISA technology was used to test binding ability of the antibodies to each peptide (FIG. 21C). […] C4 and B12 may have a conformational epitope that couldn't be predicted by a linearized peptide library.

[6] = biological target: T5, B7H3 peptide 11 (human); test: as above
T5 peptide: SFTCFVSIRDFGSAAVSL
From the text: as §2, §3

[7] = biological target: T6, B7H3 peptide 15 (human); test: as above
T6 peptide: LRPGDTVTITCSSYQGYP
From the text: as §2, §3

[8] = biological target: T7, human B7H3 (human, UniProt Q5ZPR3 29-466, limits assumed); test: ELISA; row Human; well 2 of 3
T7 construct: also called human B7H3 protein
T7 sequence (looked up): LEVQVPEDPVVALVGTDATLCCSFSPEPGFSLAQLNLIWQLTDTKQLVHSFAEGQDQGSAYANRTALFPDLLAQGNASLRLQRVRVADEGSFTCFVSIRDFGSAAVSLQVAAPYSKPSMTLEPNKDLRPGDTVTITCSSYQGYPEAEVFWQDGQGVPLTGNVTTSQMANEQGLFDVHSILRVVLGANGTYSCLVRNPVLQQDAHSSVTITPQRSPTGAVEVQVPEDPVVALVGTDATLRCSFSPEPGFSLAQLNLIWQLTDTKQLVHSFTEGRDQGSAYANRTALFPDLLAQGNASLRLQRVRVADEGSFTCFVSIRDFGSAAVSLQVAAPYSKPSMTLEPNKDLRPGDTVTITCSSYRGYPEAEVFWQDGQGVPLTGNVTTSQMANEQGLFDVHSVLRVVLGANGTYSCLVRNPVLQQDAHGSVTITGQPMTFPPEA
In short: as §1

[9] = biological target: PD-L1; test: ELISA; row PDL1-Fc; well 3 of 3
In short: as §1

[10] = biological target: T3, B7H3 (CD276) on MC38-CD276+ cells; test: flow cytometry on MC38-CD276+ cells, VHH at 50 ug/ml
[11] = biological target: T2, recombinant human B7H3-Fc protein; test: ELISA; row B7H3-Fc; well 2 of 3
In short: as §1

[12] = biological target: T2, recombinant human B7H3-Fc protein; test: ELISA; row B7H3-Fc; well 3 of 3
In short: as §1

Chain of PD-L1 (Q9NZQ7 whole entry): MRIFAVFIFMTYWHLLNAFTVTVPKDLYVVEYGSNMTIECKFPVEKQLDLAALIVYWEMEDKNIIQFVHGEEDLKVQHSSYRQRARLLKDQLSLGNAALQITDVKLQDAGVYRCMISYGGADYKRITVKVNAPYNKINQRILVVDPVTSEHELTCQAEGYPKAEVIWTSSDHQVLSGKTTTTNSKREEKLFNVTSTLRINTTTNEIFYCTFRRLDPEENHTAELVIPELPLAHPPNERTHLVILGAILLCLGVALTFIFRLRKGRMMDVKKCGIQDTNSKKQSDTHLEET

B1: RWG8 (VHH)
VHH: DVQLVESGGGLVQPGGSLRLSCAASGFTFSRYWMGWFRQAPGKGVEWVSTINSGGGSTYYADSVKGRFTISRDNAKNTLYLQLNNLKTEDTAMYYCAKEQWRTGSRGQGTQVTVSS
notes: Camel VHH; tag not described; also called camel antibody RWG8
ELISA reading (name not given) [1]: 0.0636
ELISA reading (name not given) [2]: 0.0653
ELISA signal [3]: 2.52
Positive rates [4]: 0.1%
binding result [5]: binds
binding result [6]: binds
binding result [7]: binds
ELISA reading (name not given) [8]: 0.147
ELISA reading (name not given) [9]: 0.0999
Positive rates [10]: 26.5%
ELISA reading (name not given) [11]: 2.01
ELISA reading (name not given) [12]: 1.87

B2: RWB12 (VHH)
VHH: QVQLVESGGGSVQVGGSLRLSCAASGFTYNSYSVGWFRQAPGKEREGVAAINSGGSSTYYAASVKGRFTISRDNAKNTVYLQMNSLKPEDTAMYYCAARSPSPLTFQTRTLREDSYNYWGQGTQVTVSS
notes: Camel VHH; tag not described; also called camel antibody RWB12
ELISA reading (name not given) [1]: 0.0946
ELISA reading (name not given) [2]: 0.0639
ELISA signal [3]: 2.48
Positive rates [4]: 0.23%
binding result [5]: no binding
binding result [6]: no binding
binding result [7]: no binding
ELISA reading (name not given) [8]: 0.21
ELISA reading (name not given) [9]: 0.0624
Positive rates [10]: 12%
ELISA reading (name not given) [11]: 0.945
ELISA reading (name not given) [12]: 0.952

B3: RWC4 (VHH)
VHH: EVQLVESGGGSVQAGGSLRLSCVASEDSTSAMCMGWFRQAPGKEREGVACINPTGEVTWYGDSVKGRFTISRDTVKKIVYLQMNSLKPEDTAMYYCAARVTYGGDWSTDTDYEYWGQGTQVTVSS
notes: Camel VHH; tag not described; also called camel antibody RWC4
ELISA reading (name not given) [1]: 0.0811
ELISA reading (name not given) [2]: 0.0625
ELISA signal [3]: 2.66
Positive rates [4]: 14.4%
binding result [5]: no binding
binding result [6]: no binding
binding result [7]: no binding
ELISA reading (name not given) [8]: 0.979
ELISA reading (name not given) [9]: 0.0613
Positive rates [10]: 98.8%
ELISA reading (name not given) [11]: 1.99
ELISA reading (name not given) [12]: 1.95

B4: RWG4 (VHH)
VHH: QVQLVQSGGGLVQPGGSLRLSCAASGFTFSVYWFYWVRQAPRQGLEWVSTIASNGSTYYSDSVKGRFTISRDNAKNTVYLQMNSLKPEDTAVYYCVSDPDYYSDYERAYKFWAQGTQVTVSS
notes: Camel VHH; tag not described; also called camel antibody RWG4
ELISA signal [3]: 2.13
Positive rates [4]: 1.25%
Positive rates [10]: 91.5%
